Results on one molecule are retold here after paper PMC4166121, “Endothelial nitric oxide synthase is regulated by ERK phosphorylation at Ser^602” (Bioscience Reports, 2014).

The assay addresses T1, biotinylated calmodulin (UniProt P0DP23 1-149, biotin (biotinylated; site not stated)).
T1 construct: calmodulin (CaM); experiments done 'essentially as described in [27]'; Held by its biotin on streptavidin sensors (BLI) or a biotin CAPture chip (SPR); also called CaM; biotinylated CaM
Put plainly: BLI; biotinylated CaM immobilised on streptavidin sensors; eNOS 0, 10.9, 31.9, 43.7 and 87.5 nM as analyte; 180 s association, 180 s dissociation; 10 mM HEPES pH 7.4, 100 mM NaCl, 10% glycerol, 10 uM CaCl2, 0.05% surfactant P-20; 25°C; global single-state fit. To be noted: both partners purified.

B1: endothelial nitric oxide synthase phosphorylated by ERK (enzyme)
chain: MGNLKSVGQEPGPPCGLGLGLGLGLCGKQGPASPAPEPSRAPAPATPHAPDHSPAPNSPTLTRPPEGPKFPRVKNWELGSITYDTLCAQSQQDGPCTPRCCLGSLVLPRKLQTRPSPGPPPAEQLLSQARDFINQYYSSIKRSGSQAHEERLQEVEAEVASTGTYHLRESELVFGAKQAWRNAPRCVGRIQWGKLQVFDARDCSSAQEMFTYICNHIKYATNRGNLRSAITVFPQRAPGRGDFRIWNSQLVRYAGYRQQDGSVRGDPANVEITELCIQHGWTPGNGRFDVLPLLLQAPDEAPELFVLPPELVLEVPLEHPTLEWFAALGLRWYALPAVSNMLLEIGGLEFSAAPFSGWYMSTEIGTRNLCDPHRYNILEDVAVCMDLDTRTTSSLWKDKAAVEINLAVLHSFQLAKVTIVDHHAATVSFMKHLDNEQKARGGCPADWAWIVPPISGSLTPVFHQEMVNYILSPAFRYQPDPWKGSATKGAGITRKKTFKEVANAVKISASLMGTLMAKRVKATILYASETGRAQSYAQQLGRLFRKAFDPRVLCMDEYDVVSLEHEALVLVVTSTFGNGDPPENGESFAAALMEMSGPYNSSPRPEQHKSYKIRFNSVSCSDPLVSSWRRKRKESSNTDSAGALGTLRFCVFGLGSRAYPHFCAFARAVDTRLEELGGERLLQLGQGDELCGQEEAFRGWAKAAFQASCETFCVGEEAKAAAQDIFSPKRSWKRQRYRLSTQAEGLQLLPGLIHVHRRKMFQATVLSVENLQSSKSTRATILVRLDTAGQEGLQYQPGDHIGICPPNRPGLVEALLSRVEDPPPPTESVAVEQLEKGSPGGPPPSWVRDPRLPPCTLRQALTFFLDITSPPSPRLLRLLSTLAEEPSEQQELETLSQDPRRYEEWKWFRCPTLLEVLEQFPSVALPAPLLLTQLPLLQPRYYSVSSAPNAHPGEVHLTVAVLAYRTQDGLGPLHYGVCSTWLSQLKTGDPVPCFIRGAPSFRLPPDPYVPCILVGPGTGIAPFRGFWQERLHDIESKGLQPAPMTLVFGCRCSQLDHLYRDEVQDAQERGVFGRVLTAFSREPDSPKTYVQDILRTELAAEVHRVLCLERGHMFVCGDVTMATSVLQTVQRILATEGDMELDEAGDVIGVLRDQQRYHEDIFGLTLRTQEVTSRIRTQSFSLQERHLRGAVPWAFDPPGPDTPGP
modifications: phosphothreonine at 46, phosphoserine at 58, phosphoserine at 602 (by ERK in vitro; 2-3 phosphates per monomer; phosphorylation incomplete, at least 75%)
notes: endothelial nitric oxide synthase (eNOS); the residue numbers used (Thr46, Ser58, Ser602; Ser602 = human Ser600) are those of bovine eNOS; Same protein as m2 after the ERK kinase reaction (20 mM Hepes pH 7.4, 1 mM DTT, 10 mM MgCl2, 1 mM ATP, 10% glycerol, room temperature); also called ERK phosphorylated eNOS; phosphorylated eNOS
On to B1, for which the koff (in general, the rate constant with which the complex falls apart) stood at 0.00033 s⁻¹.
